Holding throughout (experiment): proteoliposome ELISA
Common to all, as to conditions: chain shown with the change;; parent: est. 1.0; read off a plot

Assay [1] deals with anti-CLDN-5 ECR mAb clone 2B12.
The target in assay [2] is anti-CLDN-5 ECR mAb clone 2B1.
Assay [3] concerns the target anti-CLDN-5 ECR mAb clone 1D1.
The target in assay [4] is T1, anti-CLDN-5 ECR mAb clone 1B3.
T1 chain 1: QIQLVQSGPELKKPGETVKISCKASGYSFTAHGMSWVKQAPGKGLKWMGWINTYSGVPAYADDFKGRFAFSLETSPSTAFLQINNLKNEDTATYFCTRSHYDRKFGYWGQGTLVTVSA
T1 chain 2: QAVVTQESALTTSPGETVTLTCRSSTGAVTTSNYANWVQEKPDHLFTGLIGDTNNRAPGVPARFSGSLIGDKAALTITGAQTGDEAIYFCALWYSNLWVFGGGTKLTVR

Where a chain is given by its changes, count along the chain named. In names and notes the source's numbering stands.

anti-CLDN-5 ECR mAb clone 2B12, sequence (chain, as listed by the source, chain 1 of 2): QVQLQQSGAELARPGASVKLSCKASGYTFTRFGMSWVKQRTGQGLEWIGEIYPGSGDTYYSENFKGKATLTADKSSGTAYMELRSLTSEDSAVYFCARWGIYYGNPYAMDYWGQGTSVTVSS
anti-CLDN-5 ECR mAb clone 2B12, sequence (chain, as listed by the source, chain 2 of 2): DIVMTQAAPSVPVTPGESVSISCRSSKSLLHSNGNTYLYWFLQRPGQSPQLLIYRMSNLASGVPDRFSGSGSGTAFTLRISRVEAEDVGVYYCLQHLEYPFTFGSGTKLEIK
anti-CLDN-5 ECR mAb clone 1D1, sequence (chain, as listed by the source, chain 1 of 2): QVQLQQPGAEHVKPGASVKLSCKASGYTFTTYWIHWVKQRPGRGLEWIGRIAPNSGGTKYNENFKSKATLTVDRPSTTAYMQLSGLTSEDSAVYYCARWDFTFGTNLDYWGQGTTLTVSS
anti-CLDN-5 ECR mAb clone 1D1, sequence (chain, as listed by the source, chain 2 of 2): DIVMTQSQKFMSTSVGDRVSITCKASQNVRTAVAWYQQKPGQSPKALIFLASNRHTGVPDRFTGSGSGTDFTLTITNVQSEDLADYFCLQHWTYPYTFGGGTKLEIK
anti-CLDN-5 ECR mAb clone 2B1, sequence (chain, as listed by the source, chain 1 of 2): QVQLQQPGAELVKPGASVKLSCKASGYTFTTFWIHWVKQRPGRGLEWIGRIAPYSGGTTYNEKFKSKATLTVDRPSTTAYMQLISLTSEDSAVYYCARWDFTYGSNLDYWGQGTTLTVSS
anti-CLDN-5 ECR mAb clone 2B1, sequence (chain, as listed by the source, chain 2 of 2): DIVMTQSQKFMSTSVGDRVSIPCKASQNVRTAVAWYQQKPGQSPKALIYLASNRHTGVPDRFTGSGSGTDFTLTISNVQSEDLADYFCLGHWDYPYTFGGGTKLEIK

B1: AGIA-tagged human CLDN-5, cell-free synthesized proteoliposome, O00501 Q156A (protein)
chain: MGSAALEILGLVLCLVGWGGLILACGLPMWQVTAFLDHNIVTAQTTWKGLWMSCVVQSTGHMQCKVYDSVLALSTEVQAARALTVSAVLLAFVALFVTLAGAQCTTCVAPGPAKARVALTGGVLYLFCGLLALVPLCWFANIVVREFYDPSVPVSAKYELGAALYIGWAATALLMVGGCLLCCGAWVCTGRPDLSFPVKYSAPRRPTATGDYDKKNYV
Turning to B1, the ratio to parent amounted to 0.94 in assay [1], 0.55 in assay [2], 0.88 in assay [3] and 1.2 in assay [4].

B2: AGIA-tagged human CLDN-5, cell-free synthesized proteoliposome, O00501 P150A (protein)
chain: B1 chain with P150A, A156Q
B2: the ratio to parent in assay [1] was found to be 0.13; in assay [2], 0.27; in assay [3], 0.26; in assay [4], 1.8.

B3: AGIA-tagged human CLDN-5, cell-free synthesized proteoliposome, O00501 V154A (protein)
chain: B1 chain with V154A, A156Q
For B3, the ratio to parent is 0.87 in assay [1], 1.1 in assay [2], 1.3 in assay [3] and 1.2 in assay [4].

B4: AGIA-tagged human CLDN-5, cell-free synthesized proteoliposome, O00501 D149A (protein)
chain: B1 chain with D149A, A156Q
As for B4, the ratio to parent in assay [1] turned out to be 0.03; in assay [2], 0.11; in assay [3] it was 0.06; in assay [4], 0.17.

B5: AGIA-tagged human CLDN-5, cell-free synthesized proteoliposome, O00501 S151A (protein)
chain: B1 chain with S151A, A156Q
For the molecule B5, the ratio to parent in assay [1] turned out to be 0.03; in assay [2], 0.14; in assay [3], 0.1; in assay [4], 0.75.

B6: AGIA-tagged human CLDN-5, cell-free synthesized proteoliposome, O00501 E146A (protein)
chain: B1 chain with E146A, A156Q
Consider B6, for which the ratio to parent was 0.36 in assay [1], 0.25 in assay [2], 0.26 in assay [3] and 0.49 in assay [4].

B7: AGIA-tagged human CLDN-5, cell-free synthesized proteoliposome, O00501 F147A (protein)
chain: B1 chain with F147A, A156Q
On to B7, for which the ratio to parent turned out to be 1.3 in assay [1], 1.1 in assay [2], 1.5 in assay [3] and 2.4 in assay [4].

B8: AGIA-tagged human CLDN-5, cell-free synthesized proteoliposome, O00501 P153A (protein)
chain: B1 chain with P153A, A156Q
On to B8, for which the ratio to parent in assay [1] was determined as 0.08; in assay [2], 0.14; in assay [3] it was 0.13; in assay [4], 0.19.

B9: AGIA-tagged human CLDN-5, cell-free synthesized proteoliposome, O00501 Y148A (protein)
chain: B1 chain with Y148A, A156Q
On to B9, for which the ratio to parent in assay [1] turned out to be 0.75; in assay [2] it was 1.1; in assay [3], 1.3; in assay [4] it was 0.17.

B10: AGIA-tagged human CLDN-5, cell-free synthesized proteoliposome, O00501 S155A (protein)
chain: B1 chain with S155A, A156Q
In the case of B10, the ratio to parent in assay [1] was found to be 0.99; in assay [2], 0.84; in assay [3], 0.86; in assay [4] it was 1.3.

B11: AGIA-tagged human CLDN-5, cell-free synthesized proteoliposome, O00501 V152A (protein)
chain: B1 chain with V152A, A156Q
As to B11, the ratio to parent was found to be 0.39 in assay [1], 1.2 in assay [2], 1.6 in assay [3] and 0.25 in assay [4].

Values taken from PMC5976803.
